Assay [1] has as its target T1, recombinant human 4-1BB (Sino Biological Inc., catalog number 10041-H08H) (human, UniProt Q07011 24-186).
T1 construct: Bought protein coated on the ELISA plate
The assay can be described thus: ELISA, human 4-1BB coated (FIG. 8B; assay format inferred from the order of the methods). The procedure: (§1) The detailed process is as follows: a 96-well high-adsorption ELISA plate (Costar, catalog number 42592) was coated with 1 μg/mL recombinant human PD-L1 (Sino Biological Inc., catalog number 100 84-H08H) or human 4-1BB (Sino Biological Inc., catalog number 10041-H08H) at 100 μL per well using carbonate buffer solution, pH=9.6 at 4° C. overnight. The plate was wash 5 times with PBST, and then blocked using PBST with 1% BSA 300 μL/well and incubated at 25° C. for 1 hour, and then washed 5 times with PBST. The heterodimeric antibody samples serially diluted in PBST with 1% BSA and the control were added, 100 μL per well and incubated at 25° C. for 1 hour. The plate was washed 5 times with PBST. The horseradish peroxidase-labeled anti-human IgG antibody (Chemicon, catalog number AP309P) diluted 1:10000 in PBST with 1% BSA was then added, 100 μL per well, and incubated at 25° C. for 1 hour. The plate was […] with PBST. The colorimetric substrate TMB was added, 100 μL/well, and developed at room temperature for 10 minutes. 1 M H₂SO₄, was added, 100 μL/well, to stop the development. The absorbance at 450 nm was read on a microplate reader.
For orientation: In an ELISA, binding on a coated surface is turned into a signal by an enzyme label.

In assay [2] the target is T2, recombinant human PD-L1 (Sino Biological Inc., catalog number 100 84-H08H) (human, UniProt Q9NZQ7 19-239).
T2 construct: Bought protein coated on the ELISA plate
The assay can be described thus: ELISA, recombinant human PD-L1 coated (FIG. 8A). The procedure: as §1

T2 sequence (Q9NZQ7 19-239 limits assumed): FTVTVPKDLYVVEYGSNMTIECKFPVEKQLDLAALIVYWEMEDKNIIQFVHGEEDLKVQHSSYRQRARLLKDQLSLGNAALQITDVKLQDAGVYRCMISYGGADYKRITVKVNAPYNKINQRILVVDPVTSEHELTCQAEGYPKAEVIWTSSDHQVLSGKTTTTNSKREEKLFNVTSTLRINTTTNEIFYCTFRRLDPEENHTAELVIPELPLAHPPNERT

B1: anti-PD-L1/anti-4-1BB heterodimeric antibody BH3120h (bispecific antibody, human IgG1, kappa, N297A)
heavy 1: not shown
light 1: DIQMTQSPSSLSASVGDRVTITCKASQDVHTAVAWIQQKPGKSPKLLIYSASNRYTGVPSRFSGSGSGTDFTFTISSLQPEDIATYYCQQHYITPLTFGQGTKLEIKRTVAAPSVFIFPPSDEQLKSGTASVVCLLNNFYPREAKVQWKVDNALQSGNSQESVTEQDSKDSTYSLSSTLTLSKADYEKHKVYACEVTHQGLSSPVTKSFNRGEC
heavy 2: QVQLVQSGAEVKKPGSSVKVSCKASGYTFTSYWINWVRQAPGQGLEWMGNIYPSDSYTNYNQKFKDRVTITADKSTSTAYMELSSLRSEDTAVYYCARLYYGSSPFDYWGQGTTVTVSSASTKGPSVFPLAPSSKSTSGGTAALGCLVKDYFPEPVTVSWNSGALTSGVHTFPAVLQSSGLYSLSSVVTVPSSSLGTQTYICNVNHKPSNTKVDKKVEPKSCDKTHTCPPCPAPELLGGPSVFLFPPKPKDTLMISRTPEVTCVVVDVSHEDPEVKFNWYVDGVEVHNAKTKPREEQYASTYRVVSVLTVLHQDWLNGKEYKCKVSNKALPAPIEKTISKAKGQPREPQVYTEPPSRDELTKNQVSLTCLVKGFYPSDIAVEWESNGQPENNYKTTPPVLDSDGSFFLLSVLTVDKSRWQQGNVFSCSVMHEALHNHYTQKSLSLSPGK
light 2: not shown
notes: also called anti-PD-L1/anti-4-1BB bispecific antibody; anti-PD-L1/anti-4-1BB heterodimeric antibody molecule
Regarding B1, the binding result in assay [1] and in assay [2] was “binds” in each case.

The values are drawn from patent US20240034801A1 (BEIJING HANMI PHARMACEUTICAL, published 2024).
